Results: US20240010736A1

Biological target: human thrombopoietin receptor (hTPOR, genetic name MPL), on cells (human) (UniProt P40238)
Assay: cell-based or functional assay

- EC50 of cell proliferation of BaF3/MPL cells: 1.3 ng/mL
Substance: recombinant human thrombopoietin (rhTPO) (from UniProt P40225 22-353) (ligand)
